Laboratory results published in article PMC4823717.

T1: Ffh (the protein subunit of signal recognition particle, SRP), wild type, P0AGD7
T1 chain: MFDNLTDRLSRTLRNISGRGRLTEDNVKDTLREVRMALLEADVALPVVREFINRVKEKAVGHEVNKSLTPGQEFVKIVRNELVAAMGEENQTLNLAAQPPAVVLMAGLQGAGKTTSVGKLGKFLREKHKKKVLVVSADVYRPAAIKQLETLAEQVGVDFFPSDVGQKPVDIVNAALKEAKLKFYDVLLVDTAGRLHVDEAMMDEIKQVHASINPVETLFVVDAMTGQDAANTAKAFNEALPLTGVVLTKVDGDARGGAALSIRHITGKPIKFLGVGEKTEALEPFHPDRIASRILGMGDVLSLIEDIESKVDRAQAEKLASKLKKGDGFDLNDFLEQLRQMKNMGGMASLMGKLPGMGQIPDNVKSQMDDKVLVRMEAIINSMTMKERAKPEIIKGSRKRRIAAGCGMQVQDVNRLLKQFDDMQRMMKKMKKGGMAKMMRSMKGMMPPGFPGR


molecular target: Ffh (the protein subunit of signal recognition particle, SRP), wild type (UniProt P0AGD7); experiment: in vivo photo-cross-linking ([35S]Met pulse-labeling, immunoprecipitation, SDS-PAGE, phosphorimaging); conditions: 30 °C, M9-based medium with 1 mM pBPA, 1 mM IPTG for 6 min, [35S]Met for 1 min, UV irradiation; parent: 100; read off a plot

Chain of His6-σ32 T52pBPA (P0AGB3 1-51, change not shown): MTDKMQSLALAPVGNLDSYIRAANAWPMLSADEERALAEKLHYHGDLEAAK

Row | Molecule | percent of parent (parent (no dysregulation mutation) = 100)
1 | His6-σ32 K51pBPA (from UniProt P0AGB3) I54N | 53
2 | His6-σ32 K51pBPA (from UniProt P0AGB3) R91P | 78
3 | His6-σ32 T52pBPA (from UniProt P0AGB3) I54N | 43
4 | His6-σ32 T52pBPA (from UniProt P0AGB3) R91P | 76

Molecular target: T1, Ffh (the protein subunit of signal …)
Experiment: as above
Conditions: chain shown with the change; 30 °C, M9-based medium with 1 mM pBPA, 1 mM IPTG for 6 min, [35S]Met for 1 min, UV irradiation; parent: 100; read off a plot

Row | Molecule | percent of parent (parent (no dysregulation mutation) = 100)
5 | His6-σ32 T52pBPA, P0AGB3 K51E (protein) MTDKMQSLALAPVGNLDSYIRAANAWPMLSADEERALAEKLHYHGDLEAAE | 95
6 | His6-σ32 T52pBPA, P0AGB3 A50D (protein) MTDKMQSLALAPVGNLDSYIRAANAWPMLSADEERALAEKLHYHGDLEADK | 36
7 | MTDKMQSLALAPVGNLDSYIRAANAWPMLSADEERALAEKLHYHGDLEAD [His6-σ32 K51pBPA, P0AGB3 A50D] | 7.6
